Residue numbers refer to the chain shown, from its start.
B1: VPS4A MIT domain (VPS4A residues 1−84) (domain or fragment, human, UniProt Q9UN37 1-84, looked up)
chain: MTTSTLQKAIDLVTKATEEDKAKNYEEALRLYQHAVEYFLHAIKYEAHSDKAKESIRAKCVQYLDRAEKLKDYLRSKEKHGKKP
B2: VPS4B MIT domain (domain or fragment, human, UniProt O75351 4-82, looked up)
chain: TSPNLQKAIDLASKAAQEDKAGNYEEALQLYQHAVQYFLHVVKYEAQGDKAKQSIRAKCTEYLDRAEKLKEYLKNKEKK

How the values were obtained:
[1] = target: T1, full length GST-CHMP6_(1−201) (human, UniProt Q96FZ7 1-201); experiment: SPR
T1 sequence (looked up): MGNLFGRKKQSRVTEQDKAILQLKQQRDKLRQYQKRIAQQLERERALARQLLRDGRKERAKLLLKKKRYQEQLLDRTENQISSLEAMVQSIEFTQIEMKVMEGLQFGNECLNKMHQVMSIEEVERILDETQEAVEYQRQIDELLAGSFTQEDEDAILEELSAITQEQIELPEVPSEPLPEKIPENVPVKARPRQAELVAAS

[2] = target: T2, GST-CHMP6 without the final 20 residues (human, UniProt Q96FZ7 1-181); experiment: SPR
T2 sequence (looked up): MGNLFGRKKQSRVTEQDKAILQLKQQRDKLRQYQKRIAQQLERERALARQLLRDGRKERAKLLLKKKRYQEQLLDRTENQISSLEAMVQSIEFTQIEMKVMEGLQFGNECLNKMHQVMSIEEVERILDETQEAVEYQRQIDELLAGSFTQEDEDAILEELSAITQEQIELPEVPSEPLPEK

[3] = target: CHMP6 MIM2 L178D (human); experiment: SPR
[4] = target: B1; experiment: SPR
[5] = target: T3, VPS4A MIT_(L64D) (human, UniProt Q9UN37 1-84, L64D); experiment: SPR
T3 sequence (looked up): B1 chain with L64D

[6] = target: B1; experiment: NMR solution structure
[7] = target: T4, GST-CHMP6 (construct of the VPS4B measurement not stated) (human, UniProt Q96FZ7 1-201); experiment: SPR
T4 sequence (looked up): T1 sequence (looked up)

For B1, the Kd [1] was 33 ± 7 µM, the Kd [2] was 23.2 ± 0.2 µM and the Kd [3] was 44.4 µM.

Work on QEQIELPEVPSEPLPEK (domain or fragment, human, UniProt Q96FZ7 165-181, looked up) [GST-CHMP6_(165−181) fragment] yielded a Kd [4] of 5.8 ± 0.8 µM and a Kd [5] of 26.1 ± 0.8 µM.

With LPEVPSEPLPEK (domain or fragment, human, UniProt Q96FZ7 170-181, looked up) [GST-CHMP6_(170−181) minimal fragment] the Kd [4] was 8 ± 0.1 µM.

EQIELPEVPSEPLPEK (peptide, UniProt Q96FZ7 166-181, looked up) [CHMP6_(166−181) MIM2 peptide]: binds [6].

B2 gave a Kd [7] of 786 ± 6 µM.
